Experimental data as given in article PMC6343778 (mAbs, 2018).

Assays:
[1] = differential scanning fluorimetry; conditions: glycan gained; control: wild-type HER2 ECD alone or human IgG1 Fc alone
[2] = target: T1, human MICA*008 α3 domain with a C-terminal His8 (Homo sapiens, MICA*008); experiment: SPR
T1 chain: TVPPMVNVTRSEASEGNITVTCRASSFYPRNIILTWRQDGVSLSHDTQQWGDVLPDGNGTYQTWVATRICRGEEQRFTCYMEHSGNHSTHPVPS

[3] = target: T2, human MICB*005 α3 domain with a C-terminal His8 (Homo sapiens, MICB*005, UniProt Q29980); experiment: SPR
[4] = target: T3, human MICA*002 α3 domain with a C-terminal His8 (Homo sapiens, MICA*002, UniProt Q29983); experiment: SPR
[5] = target: T4, human MICA*004 α3 domain with a C-terminal His8 (Homo sapiens, MICA*004, UniProt Q29983); experiment: SPR
[6] = target: T1, human MICA*008 α3 domain with a …; experiment: cell-based or functional assay
[7] = target: T2, human MICB*005 α3 domain with a …; experiment: cell-based or functional assay
[8] = target: T3, human MICA*002 α3 domain with a …; experiment: cell-based or functional assay
[9] = target: T4, human MICA*004 α3 domain with a …; experiment: cell-based or functional assay

Q: For HER2 ECD: V308N, which stability_or_folding [1] is on record?
A: no change

Q: With HER2 ECD: S310N as the molecule, how does the stability_or_folding [1] read?
A: no change

Q: For HER2 ECD: K333N, which stability_or_folding [1] is on record?
A: no change

B1: anti-MICA/B antibody 1D5 (hybridoma-derived mouse antibody) (antibody, V domains shown)
VH: EIQLQQSGPELVKPGASVKVSCKASGYAFTSQNIYWVKQSHGKSLEWIGYIEPYNVVPMYNPKFKGKATLTVDKSSSSAYIHLNSLTSEDSAIYYCARSGSSNFDYWGQGTTLTVSS
VL: EIILTQSPTTMAASPGEKITITCSASSSISSHYLHWYQQKSGFSPKLLIYRTSNLASGVPARFSGSGSGTSYSLTIGTMEAEDVATYYCQQGSSLPLTFGAGTKLEIK
Q: Which Kd [2] does the source give for B1 here?
A: 0.42 nM

Q: What about the Kd [3] of the same molecule?
A: 1.09 nM

Q: And the Kd [4]?
A: 0.675 nM

Q: And the Kd [5]?
A: 0.486 nM

Q: What about the “EC50 of inhibition of MICA*008 shedding from the MEL-JUSO cell line” value [6] of the same molecule?
A: 0.0207 µg/mL

Q: What about the “EC50 of inhibition of MICB*005 shedding from the HCC1534 cell line” value (“EC50 of inhibition of MICB*005 shedding” below) [7] of the same molecule?
A: 0.0386 µg/mL

Q: And the “Max % inhibition of MICB*005 shedding from the HCC1534 cell line” value (“Max % inhibition of MICB*005 shedding” for short) [7]?
A: 59%

Q: What about the “EC50 of inhibition of MICA*002 shedding from the PANC1 cell line” value [8] of the same molecule?
A: 0.0341 µg/mL

Q: And the “EC50 of inhibition of MICA*004 shedding from the HCC1534 cell line” value [9]?
A: 0.0136 µg/mL

Q: And the “Max % inhibition of MICA*004 shedding from the HCC1534 cell line” value [9]?
A: 65%

B2: anti-MICA/B antibody 6E1 (hybridoma-derived mouse antibody) (antibody, V domains shown)
VH: QGQMQQSGAELVKPGASVKLSCKTSGFTFSDNYISWLKQKPGQSLEWIAWIYAGTGGSSYNQKFRDKAQLTVDTSSRTAYMQLSSLTTEDSAIYYCARHDYYGTSGAWFAYWGRGTLVTVSA
VL: DVLMTQTPLSLPVSLGDQASISCRSSQHIVHSNENTYLEWYLQKPGQSPKLLIYKVSNRFSGVPDRFSGSGSGTDFTLKISRVEAEDLGVYYCFQGSHVPWTFGGGTKLEIK
Q: For B2, which Kd [3] is on record?
A: 5.75 nM

Q: What about the Kd [4] of the same molecule?
A: 2.96 nM

Q: What about the Kd [5] of the same molecule?
A: 8.42 nM

Q: And the “EC50 of inhibition of MICB*005 shedding” value [7]?
A: 0.0724 µg/mL

Q: What about the “Max % inhibition of MICB*005 shedding” value [7] of the same molecule?
A: 58%

B3: anti-MICA/B antibody 13A9 (hybridoma-derived mouse antibody) (antibody, V domains shown)
VH: QVQLQQSGAELVRPGTSVKVSCKASGYAFTNYLIEWVKQRPGQGLEWIGAINPGSGATNYNEKFKDKARLTADKSSNTAYLQFSSLTSDDSAVYFCARFLGNYFDNWGQGATLTVSS
VL: DIQMTQSPASLSASVGETVTITCRASGNIHSYLAWYQQKQGKSPQLLVYYAETLADGVPSRFSGRGSGTQYSLKINSLQPEDFGSYFCQQFWTTPYTFGGGTKVEIK
Q: Which Kd [2] does the source give for B3 here?
A: 0.94 nM

Q: What about the Kd [3] of the same molecule?
A: 0.968 nM

Q: What about the Kd [4] of the same molecule?
A: 0.499 nM

Q: What about the Kd [5] of the same molecule?
A: 1.55 nM

Q: What about the “EC50 of inhibition of MICA*008 shedding from the MEL-JUSO cell line” value [6] of the same molecule?
A: 0.794 µg/mL

Q: What about the “EC50 of inhibition of MICB*005 shedding” value [7] of the same molecule?
A: 0.0349 µg/mL

Q: And the “Max % inhibition of MICB*005 shedding” value [7]?
A: 76%

Q: And the “EC50 of inhibition of MICA*002 shedding from the PANC1 cell line” value [8]?
A: 0.418 µg/mL

Q: And the “EC50 of inhibition of MICA*004 shedding from the HCC1534 cell line” value [9]?
A: 0.599 µg/mL

Q: And the “Max % inhibition of MICA*004 shedding from the HCC1534 cell line” value [9]?
A: 56%
